Reference: patent publication US20250313864, “TYPE V CAS PROTEINS AND APPLICATIONS THEREOF” (Alia Therapeutics Srl, published 2025)

Experiments:
Assay in all cases: cell_activity; PAM TTTA; U2OS; with at least one of g1/g2, which one not given
Conditions in all cases: tags: V5 tag, C-terminal NLS; hairpin
ZJHK Type V-A Cas = target: T1, ZJHK Type V-A Cas (unidentified)
T1 chain: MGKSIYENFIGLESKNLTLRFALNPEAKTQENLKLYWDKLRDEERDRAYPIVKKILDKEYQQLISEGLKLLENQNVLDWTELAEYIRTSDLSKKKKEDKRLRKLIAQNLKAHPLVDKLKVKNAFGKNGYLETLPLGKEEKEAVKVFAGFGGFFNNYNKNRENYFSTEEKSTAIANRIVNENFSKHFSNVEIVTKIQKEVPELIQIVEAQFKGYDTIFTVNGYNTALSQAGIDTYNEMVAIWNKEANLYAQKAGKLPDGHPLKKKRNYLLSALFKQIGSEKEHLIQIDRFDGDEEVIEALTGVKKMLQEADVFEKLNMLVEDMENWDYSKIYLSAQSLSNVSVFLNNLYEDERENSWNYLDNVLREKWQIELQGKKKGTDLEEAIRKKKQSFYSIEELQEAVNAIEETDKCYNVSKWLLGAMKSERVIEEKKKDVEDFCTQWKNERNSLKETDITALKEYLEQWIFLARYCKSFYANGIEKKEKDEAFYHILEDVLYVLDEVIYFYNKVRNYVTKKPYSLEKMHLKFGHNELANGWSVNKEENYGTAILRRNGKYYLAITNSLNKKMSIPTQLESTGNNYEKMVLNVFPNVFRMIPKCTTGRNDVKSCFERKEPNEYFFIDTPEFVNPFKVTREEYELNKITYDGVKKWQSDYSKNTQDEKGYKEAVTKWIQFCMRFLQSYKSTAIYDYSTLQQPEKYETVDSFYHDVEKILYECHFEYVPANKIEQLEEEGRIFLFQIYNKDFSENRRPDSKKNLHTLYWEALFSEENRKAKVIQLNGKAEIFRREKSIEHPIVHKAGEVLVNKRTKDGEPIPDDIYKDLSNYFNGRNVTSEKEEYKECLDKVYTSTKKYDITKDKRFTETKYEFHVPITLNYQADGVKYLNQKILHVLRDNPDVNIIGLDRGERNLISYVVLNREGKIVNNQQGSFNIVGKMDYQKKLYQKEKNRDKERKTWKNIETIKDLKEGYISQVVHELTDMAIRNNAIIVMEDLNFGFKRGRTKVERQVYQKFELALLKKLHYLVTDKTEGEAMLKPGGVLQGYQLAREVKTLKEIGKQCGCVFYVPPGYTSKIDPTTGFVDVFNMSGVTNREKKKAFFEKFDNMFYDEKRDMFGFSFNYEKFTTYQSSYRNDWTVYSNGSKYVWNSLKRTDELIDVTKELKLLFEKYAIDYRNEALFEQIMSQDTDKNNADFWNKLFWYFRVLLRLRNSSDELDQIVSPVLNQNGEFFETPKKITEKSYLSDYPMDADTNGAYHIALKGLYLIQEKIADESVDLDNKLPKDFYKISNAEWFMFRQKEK

ZZGY Type V-A Cas = target: T2, ZZGY Type V-A Cas (unidentified)
T2 chain: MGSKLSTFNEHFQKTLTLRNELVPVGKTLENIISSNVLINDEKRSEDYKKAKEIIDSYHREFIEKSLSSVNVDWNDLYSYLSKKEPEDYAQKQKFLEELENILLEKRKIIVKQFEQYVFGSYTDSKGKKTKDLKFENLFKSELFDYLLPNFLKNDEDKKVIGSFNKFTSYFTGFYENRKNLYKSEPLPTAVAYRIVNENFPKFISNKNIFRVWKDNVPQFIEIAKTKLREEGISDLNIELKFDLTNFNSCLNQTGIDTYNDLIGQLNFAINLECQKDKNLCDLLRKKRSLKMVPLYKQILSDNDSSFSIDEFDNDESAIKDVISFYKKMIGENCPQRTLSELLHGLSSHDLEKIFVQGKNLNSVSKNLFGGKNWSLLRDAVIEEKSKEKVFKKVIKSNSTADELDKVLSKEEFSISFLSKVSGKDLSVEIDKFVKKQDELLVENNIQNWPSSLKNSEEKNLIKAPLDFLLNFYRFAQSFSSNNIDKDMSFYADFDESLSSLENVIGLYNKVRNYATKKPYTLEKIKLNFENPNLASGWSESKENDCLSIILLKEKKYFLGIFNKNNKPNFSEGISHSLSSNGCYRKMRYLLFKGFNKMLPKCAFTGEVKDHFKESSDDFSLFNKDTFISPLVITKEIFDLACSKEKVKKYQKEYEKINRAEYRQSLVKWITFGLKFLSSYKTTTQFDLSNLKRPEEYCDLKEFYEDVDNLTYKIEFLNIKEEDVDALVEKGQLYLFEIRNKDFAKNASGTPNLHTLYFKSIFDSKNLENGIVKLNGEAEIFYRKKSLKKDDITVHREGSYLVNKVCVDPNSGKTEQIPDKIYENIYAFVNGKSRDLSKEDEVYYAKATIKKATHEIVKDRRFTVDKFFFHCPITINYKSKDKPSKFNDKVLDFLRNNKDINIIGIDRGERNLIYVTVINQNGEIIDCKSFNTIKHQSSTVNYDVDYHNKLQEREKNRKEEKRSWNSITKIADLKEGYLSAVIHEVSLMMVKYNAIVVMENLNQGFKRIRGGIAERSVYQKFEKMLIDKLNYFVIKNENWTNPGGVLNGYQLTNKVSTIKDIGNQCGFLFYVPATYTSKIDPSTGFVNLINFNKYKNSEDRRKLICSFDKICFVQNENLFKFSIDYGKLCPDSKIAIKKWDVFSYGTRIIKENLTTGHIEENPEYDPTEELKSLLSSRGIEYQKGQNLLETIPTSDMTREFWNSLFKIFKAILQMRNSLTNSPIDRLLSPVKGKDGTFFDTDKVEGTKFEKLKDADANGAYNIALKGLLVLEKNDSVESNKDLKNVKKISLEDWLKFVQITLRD

ZXPB Type V-A Cas = target: T3, ZXPB Type V-A Cas (unidentified)
T3 chain: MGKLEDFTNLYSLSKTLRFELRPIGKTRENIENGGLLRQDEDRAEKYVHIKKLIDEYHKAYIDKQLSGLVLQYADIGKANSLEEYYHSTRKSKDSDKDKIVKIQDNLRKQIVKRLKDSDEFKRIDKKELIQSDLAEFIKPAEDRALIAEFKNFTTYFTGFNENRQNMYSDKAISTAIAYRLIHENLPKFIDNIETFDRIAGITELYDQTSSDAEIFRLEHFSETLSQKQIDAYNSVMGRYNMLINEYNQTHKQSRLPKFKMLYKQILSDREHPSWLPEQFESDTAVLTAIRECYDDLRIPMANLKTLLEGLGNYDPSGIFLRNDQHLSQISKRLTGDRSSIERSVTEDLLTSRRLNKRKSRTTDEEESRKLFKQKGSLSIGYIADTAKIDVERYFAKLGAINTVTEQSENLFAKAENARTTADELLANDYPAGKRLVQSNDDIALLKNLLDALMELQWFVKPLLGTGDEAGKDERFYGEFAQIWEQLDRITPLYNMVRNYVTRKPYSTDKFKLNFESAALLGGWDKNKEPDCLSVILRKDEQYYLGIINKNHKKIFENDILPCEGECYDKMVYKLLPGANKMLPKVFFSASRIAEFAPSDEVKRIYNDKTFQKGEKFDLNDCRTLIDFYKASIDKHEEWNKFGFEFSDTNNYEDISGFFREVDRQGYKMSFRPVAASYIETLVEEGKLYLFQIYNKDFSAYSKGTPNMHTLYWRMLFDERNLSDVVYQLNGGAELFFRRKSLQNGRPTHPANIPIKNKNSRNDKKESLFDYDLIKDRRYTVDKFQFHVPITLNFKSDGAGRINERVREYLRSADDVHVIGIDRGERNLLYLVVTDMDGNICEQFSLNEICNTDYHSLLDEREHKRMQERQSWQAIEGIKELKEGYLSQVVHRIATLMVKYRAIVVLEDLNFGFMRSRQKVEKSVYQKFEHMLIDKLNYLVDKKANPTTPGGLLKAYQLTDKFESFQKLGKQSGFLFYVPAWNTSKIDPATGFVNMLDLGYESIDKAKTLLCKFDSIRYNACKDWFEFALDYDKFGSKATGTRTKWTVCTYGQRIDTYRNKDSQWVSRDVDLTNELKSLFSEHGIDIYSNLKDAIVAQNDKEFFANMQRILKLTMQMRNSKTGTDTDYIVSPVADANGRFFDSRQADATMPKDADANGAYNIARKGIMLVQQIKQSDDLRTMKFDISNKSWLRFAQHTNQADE

B1: ZJHK crRNA EGFP-g1 ; EGFP-g1 target (ssRNA ; dsDNA)
RNA: CUUUGAAAGAAUAUAAUUUCUACUGAAAGUGUAGAUCGUCGCCGUCCAGCUCGACCAGG
DNA 1: TTTACGTCGCCGTCCAGCTCGACCAGG
DNA 2: CCTGGTCGAGCTGGACGGCGACGTAAA
ZJHK Type V-A Cas
  activity: > 20 % EGFP KO

B2: ZZGY crRNA EGFP-g1 ; EGFP-g1 target (ssRNA ; dsDNA)
RNA: UCUAAAGCUCUUUAAGAAUUUCUACUUUCGUAGAUCGUCGCCGUCCAGCUCGACCAGG
DNA 1: TTTACGTCGCCGTCCAGCTCGACCAGG
DNA 2: CCTGGTCGAGCTGGACGGCGACGTAAA
ZZGY Type V-A Cas
  activity: > 20 % EGFP KO

B3: ZXPB crRNA EGFP-g1 ; EGFP-g1 target (ssRNA ; dsDNA)
RNA: GGCUAUAAAAGCCAUAUAAUUUCUACUAUUGUAGAUCGUCGCCGUCCAGCUCGACCAGG
DNA 1: TTTACGTCGCCGTCCAGCTCGACCAGG
DNA 2: CCTGGTCGAGCTGGACGGCGACGTAAA
ZXPB Type V-A Cas
  activity: > 20 % EGFP KO
